# Data from the DeepSol protein solubility set.
# Test: soluble on expression in E. coli; label from the status in PepcDB or PDB records
row,Sequence,soluble on expression in E. coli
1,MGSSHHHHHHSSGLVPRGSHMKAMNKVWVIGDASVDLVPEKQNSYLKCPGGASANVGVCVARLGGECGFIGCLGDDDAGRFLRQVFQDNGVDVTFLRLDADLTSAVLIVNLTADGERSFTYLVHPGADTYVSPQDLPPFRQYEWFYFSSIGLTDRPAREACLEGARRMREAGGYVLFDVNLRSKMWGNTDEIPELIARSAALASICKVSADELCQLSGASHWQDARYYLRDLGCDTTIISLGADGALLITAEGEFHFPAPRVDVVDTTGAGDAFVGGLLFTLSRANCWDHALLAEAISNANACGAMAVTAKGAMTALPFPDQLNTFLSSHSLAQAMTVK,soluble
2,MGSSHHHHHHSSGLVPRGSHMQQKLTSPDNNLVMTFQVDSKGAPTYELTYKNKVVIKPSTLGLELKKEDNTRTDFDWVDRRDLTKLDSKTNLYDGFEVKDTQTATFDETWQPVWGEEKEIRNHYNELAVTLYQPMNDRSIVIRFRLFNDGLGFRYEFPQQKSLNYFVIKEEHSQFGMNGDHIAFWIPGDYDTQEYDYTISRLSEIRGLMKEAITPNSSQTPFSQTGVQTALMMKTDDGLYINLHEAALVDYSCMHLNLDDKNMVFESWLTPDAKGDKGYMQTPCNTPWRTIIVSDDARNILASRITLNLNEPCKIADAASWVKPVKYIGVWWDMITGKGSWAYTDELTSVKLGETDYSKTKPNGKHSANTANVKRYIDFAAAHGFDAVLVEGWNEGWEDWFGNSKDYVFDFVTPYPDFDVKEIHRYAARKGIKMMMHHETSASVRNYERHMDKAYQFMADNGYNSVKSGYVGNIIPRGEHHYGQWMNNHYLYAVKKAADYKIMVNAHEATRPTGICRTYPNLIGNESARGTEYESFGGNKVYHTTILPFTRLVGGPMDYTPGIFETHCNKMNPANNSQVRSTIARQLALYVTMYSPLQMAADIPENYERFMDAFQFIKDVALDWDETNYLEAEPGEYITIARKAKDTDDWYVGCTAGENGHTSKLVFDFLTPGKQYIATVYADAKDADWKENPQAYTIKKGILTNKSKLNLHAANGGGYAISIKEVKDKSEAKGLKRL,soluble
3,MGSSHHHHHHSSGLVPRGSHMTVYTASVTAPVNIATLKYWGKRDTKLNLPTNSSISVTLSQDDLRTLTSAATAPEFERDTLWLNGEPHSIDNERTQNCLRDLRQLRKEMESKDASLPTLSQWKLHIVSENNFPTAAGLASSAAGFAALVSAIAKLYQLPQSTSEISRIARKGSGSACRSLFGGYVAWEMGKAEDGHDSMAVQIADSSDWPQMKACVLVVSDIKKDVSSTQGMQLTVATSELFKERIEHVVPKRFEVMRKAIVEKDFATFAKETMMDSNSFHATCLDSFPPIFYMNDTSKRIISWCHTINQFYGETIVAYTFDAGPNAVLYYLAENESKLFAFIYKLFGSVPGWDKKFTTEQLEAFNHQFESSNFTARELDLELQKDVARVILTQVGSGPQETNESLIDAKTGLPKE,soluble
4,MGSSHHHHHHSSGLVPRGSHWGSPNSSSVDKLMDTIVAVATPPGKGAIAILRLSGPDSWKIVQKHLRTRSKIVPRKAIHGWIHENGEDVDEVVVVFYKSPKSYTGEDMVEVMCHGGPLVVKKLLDLFLKSGARMAEPGEFTKRAFLNGKMDLTSAEAVRDLIEAKSETSLKLSLRNLKGGLRDFVDSLRRELIEVLAEIRVELDYPDEIETNTGEVVTRLERIKEKLTEELKKADAGILLNRGLRMVIVGKPNVGKSTLLNRLLNEDRAIVTDIPGTTRDVISEEIVIRGILFRIVDTAGVRSETNDLVERLGIERTLQEIEKADIVLFVLDASSPLDEEDRKILERIKNKRYLVVINKVDVVEKINEEEIKNKLGTDRHMVKISALKGEGLEKLEESIYRETQEIFERGSDSLITNLRQKQLLENVKGHLEDAIKSLKEGMPVDMASIDLERALNLLDEVTGRSFREDLLDTIFSNFCVGK,soluble
5,MGSSHHHHHHSSGLVPRGSPTVTPTVNRENKPTCYPKAEISRLSASQIRNLNPVFGGSGPALTGLRNLGNTCYMNSILQCLCNAPHLADYFNRNCYQDDINRSNLLGHKGEVAEEFGIIMKALWTGQYRYISPKDFKITIGKINDQFAGYSQQDSQELLLFLMDGLHEDLNKADNRKRYKEENNDHLDDFKAAEHAWQKHKQLNESIIVALFQGQFKSTVQCLTCHKKSRTFEAFMYLSLPLASTSKCTLQDCLRLFSKEEKLTDNNRFYCSHCRARRDSLKKIEIWKLPPVLLVHLKRFSYDGRWKQKLQTSVDFPLENLDLSQYVIGPKNNLKKYNLFSVSNHYGGLDGGHYTAYCKNAARQRWFKFDDHEVSDISVSSVKSSAAYILFYTSLG,soluble
6,MGSSHHHHHHSSGRENLYFQGHMQWETVIGLEIHAQLATQSKIFSGSSTAFGAAPNTQASLVDLAMPGTLPVLNEEAVRMACLFGLAIDARIDRQNVFARKNYFYPDLPKGYQTSQMDHPIVGKGHLDITLEDGTTKRIGITRAHLEEDAGKSLHEDFQGMSGIDLNRAGTPLLEIVSEPDIRSAKEAVAYVKAIHALVRYLGICDGNMAEGSLRCDCNVSVRPKGQAEFGTRAEIKNVNSFRFIEKAINHEIQRQIELIEDGGKVVQETRLYDPNKDETRSMRGKEEANDYRYFPCPDLLPVVIEPEYLAKLREQLPELPVQKRERFESQYGLSAYDASVLSASREMADYFEKVQGICGDAKLAANWVMVELGSLLNKDGLEIEQSPVSAEQLGGMILRIKDNTISGKLAKMVFEAMANGEGSADQIIEAKGLKQVTDSGAIEKMLDEVLAANAEQVEQYRAADEAKRGKMFGFFVGQAMKASKGKANPQQVNELLKKKLEA,soluble
7,MGSTRWDAVNKFSVENWYPHLRKHTFKSHFITLNYNDIHYLMGNIPPDYDSSKLESIFNKILSEFNNKEVFMRLSTRSPKDSKFLFEEASTIMSKDFVYWNENDNKHQQLVSFVASMLKAMKIKSGRKIIETIAQSPRVYNDLLALVSSSNQSDCTTNVILREWHDIRPDHEFRVFVSRRHRKESIVTAISQYFHFLYFDKSPADCFNFLDEEDKKAVIKKFENYVLKSVDPDVAKFLNFSSEQDDDESSDCIREYIVDLALIPVSQYHGEITDENIIEIGANTYVMVVIELNPFAPAATGSGLFNWKNDLMMLWGKASCDYPVFKYRTTPREDLQSVSLLPSNYESVIKSALIKRLETSYSNSASQKERFFSSTKPVTESSGSALLDMVTKPLEHHHHHH,soluble
8,MGTLLIDVDGTVVDSYPGIREAFIHSMTSVGIPVPEESWLRRIPGPPMVETMRALGQSDSVTAAALACFRQQYDQISWRNSQLFDGWHDALSEWRSQGIRLFTATSKNEHLARLTLEYLGVADLFDFIGGADPTVGRETKADVIAYVLATTETSEHSPILMVGDRSHDTEGAAAFGIPTMLVTWGYGNEQEWSHADYHARNMAEAKGIVRDFFN,not soluble
9,MGVFRTRFTETFGVEHPIMQGGMQWVGRAEMAAAVANAGGLATLSALTQPSPEALAAEIARCRELTDRPFGVNLTLLPTQKPVPYAEYRAAIIEAGIRVVETAGNDPGEHIAEFRRHGVKVIHKCTAVRHALKAERLGVDAVSIDGFECAGHPGEDDIPGLVLLPAAANRLRVPIIASGGFADGRGLVAALALGADAINMGTRFLATRECPIHPAVKAAIRAADERSTDLIMRSLRNTARVARNAISQEVLAIEARGGAGYADIAALVSGQRGRQVYQQGDTDLGIWSAGMVQGLIDDEPACAELLRDIVEQARQLVRQRLEGMLAGV,soluble
10,MGWCVMAVLVDSETRVLVQGITGREGSFHAKAMLEYGTKVVAGVTPGKGGSEVHGVPVYDSVKEALAEHPEINTSIVFVPAPFAPDAVYEAVDAGIRLVVVITEGIPVHDTMRFVNYARQKGATIIGPNCPGAITPGQAKVGIMPGHIFKEGGVAVVSRSGTLTYEISYMLTRQGIGQSTVIGIGGDPIVGLSFTEALKLFQEDPQTEALVLIGEIGGDMEERAAEMIKKGEFTKPVIAYIAGRTAPPEKRMGHAGAIIMMGTGTYEGKVKALREAGVEVAETPFEVPELVRKALRR,soluble
11,MGYESMLADIKSSLNGKISDVEDKIEKLKKAKKDIDTLQEEAITEIKEIVKPELGKHWTGTKADDFDKGREEAKSEASKIVNDKYNEYMASINGKIFDLEWDKAKYASELFIANGAADLLKKGEEFAEEVGNTISKLKWWLEHHHHHH,soluble
12,MGYLNNVTGYREDLLANRAIVKHGNFALLTPDGLVKNIIPGFENCDATILSTPKLGASFVDYLVTLHQNGGNQQGFGGEGIETFLYVISGNITAKAEGKTFALSEGGYLYCPPGSLMTFVNAQAEDSQIFLYKRRYVPVEGYAPWLVSGNASELERIHYEGMDDVILLDFLPKELGFDMNMHILSFAPGASHGYIETHVQEHGAYILSGQGVYNLDNNWIPVKKGDYIFMGAYSLQAGYGVGRGEAFSYIYSKDCNRDVEILEHHHHHH,not soluble
13,MGYNETIYHKPFIKINMPDVLGKPDATQIPDDVWLDILINYLQPQDIVNLSEINNRLSRLFKTQHTQSEQLNQKKTLGILKVFAGYSSTFLFARLNGKQRLFKTRNWSAADSDNINPILMPISLPENISVIESIQSTYKHTVVVGRDKHDQIIVATNKINQDYAKQETSHNQLIPLPLRDINISLVSAGNEEDYILNPIFSFPATQQGNCILNCIK,not soluble
14,MGYRIEMATRNPFDIDHKSKYLREAALEANLSHPETTPTMLTCPIDSGFLKDPVITPEGFVYNKSSILKWLETKKEDPQSRKPLTAKDLQPFPELLIIVNRFVETQTNYEKLKNRLVQNARVAARQKEYTEIPDIFLCPISKTLIKTPVITAQGKVYDQEALSNFLIATGNKDETGKKLSIDDVVVFDELYQQIKVYNFYRKREMQKNQIQPSVSSGFGFFSLNFLTSWLWGTEEKKEKTSSDMTY,not soluble
15,MGYRNLPPHLNPLAPLALDDPPGWLTSFKLRRLTADQCASLLAEANRRRLIASRPVADSEGSCPLRNVVRVANFGSVQLSSSFLASCPLALSSALYIEQQAKPLTRQLMASDLRQIDHLGSFACRNIYHRQQARRSEHATADALDVSGFRLADGRRVSVLQGWRSETSRPWLAALLSSSCHYFGNALGPEYNAAHANHFHFGMRGQGFCFLEHHHHHH,not soluble
16,MHCLSDFIPWNQVSVTGDFVGHIQELIRTEVLPYQWEALNDQIAGAEPSHCLDNFRAAAEKKGHIQFHGQPFQDSDIYKWIEAAAYTLAWHPDSDLEAKADQAIELICGAQQPDGYLNTYFILTGAQRWTHLLDGHELYCAGHLMEAAVAYYHATGKDKLLKAAQKLADHIADVFGTSPGKIPGYPGHPEVELALIRLFEATGNIKYQQLAQYFICQRGASPSIFRKEADQFGWDWADSPFQFQFYQAGKPILEQTELEGHAVRALYLCCGIADVAARTQDAALLETCRRLWEDLTQTKLYITGGAGSSVYGEAFTFAYDLPNDTAYAETCAAVAVCFFAQRMMKISPSGAYGDVLEQALYNGVLSGMALDGKSFFYVNPLEVVPEACQKDQRKKHVKPIRQKWFACACCPPNLARLFASIGGYLHFIRAETLYTNLYVTSTSEFTFQGLPIKLHMDSAYPFDEKIHISLSLPRPMEFSYAVRIPAWCADYHVLINGKICAGTLKDGFLYLHRCWRDGDEVELTLSMPVRVVRANSLVRENIGKSAICRGPIVYCMEQTDNGPQLHRNRICGKPSFTISSGEENLKGLPCISCSGEYLLPDGTQLYTSAKESFQPKTLRFIPYFAWCNRSPGEMAVWVRHDTILEHHHHHH,soluble
17,MHHHHHHGSKFKGSTFGRLVRIEFDILRLGELKIDDLSEFDTSEIKLEIKATSSGIKLVGVWEGDIEKVGEAIKKALEESIKLRERILRKMKSKVERIRKALLEMGFREEQFGYGEAVKFVKKVGDFEIAIIVSSREDIVRVEVYGEGNRKIIAPELEAFFESVDIEEIEVYDIEEEGREEKVVINLELPKSDEKPEKRITEAVKILENILMA,soluble
18,MHHHHHHIEGRHMLRPGDCEVCISYLGRFYQDLKDRDVTFSPATIEEELIKFCREARGKENRLCYYIGATDDAATKIINEVSKPLAHHIPVEKICEKLKKKDSQICELKYDKQIDLSTVDLKKLRVKELKKILDDWGEMCKGCAEKSDYIRKINELMPKYAPKAASARTDL,soluble
